# Source: patent US20260167699A1 (Chugai, published 2026)
# Molecular target: T1, FcγRIIIa extracellular domain, C-terminal His tag (human, UniProt P08637 17-208)
# T1 construct: extracellular domain; also called 3a
# Assay: SPR, binding activity relative to GpH7-A5/GpH7-B3/GpL16-k0 (=100)
# T1 sequence (P08637 other isoform, or with tags, fused parts or gaps): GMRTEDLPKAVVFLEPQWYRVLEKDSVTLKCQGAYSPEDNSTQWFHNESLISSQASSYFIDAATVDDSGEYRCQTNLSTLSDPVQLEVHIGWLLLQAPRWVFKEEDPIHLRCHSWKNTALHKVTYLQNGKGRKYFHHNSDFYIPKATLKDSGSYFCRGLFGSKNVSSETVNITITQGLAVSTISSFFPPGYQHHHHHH
row,Binder,He/Con 3a
1,"GpH7-A5/GpH7-B3 variant H268_05P/GpL16-k0 (antibody, human IgG1, kappa, He Ab; copies: 1 + 1 + 2) heavy 1: not shown heavy 2: not shown light: DIVMTQSPLSLPVTPGEPASISCQASESLVHSNRNTYLHWYLQKPGQSPQLLIYKVSNRFSGVPDRFSGSGSGTDFTLKISRVEAEDVGVYYCSQNTHVPPTFGQGTKVEIERTVAAPSVFIFPPSDEQLKSGTASVVCLLNNFYPREAKVQWKVDNALQSGNSQESVTEQDSKDSTYSLSSTLTLSKADYEKHKVYACEVTHQGLSSPVTKSFNRGEC",75.6%
2,"GpH7-A5/GpH7-B3 variant A327_13S/GpL16-k0 (antibody, human IgG1, kappa, He Ab; copies: 1 + 1 + 2) heavy 1: not shown heavy 2: not shown light: DIVMTQSPLSLPVTPGEPASISCQASESLVHSNRNTYLHWYLQKPGQSPQLLIYKVSNRFSGVPDRFSGSGSGTDFTLKISRVEAEDVGVYYCSQNTHVPPTFGQGTKVEIERTVAAPSVFIFPPSDEQLKSGTASVVCLLNNFYPREAKVQWKVDNALQSGNSQESVTEQDSKDSTYSLSSTLTLSKADYEKHKVYACEVTHQGLSSPVTKSFNRGEC",66.7%
3,"GpH7-A5/GpH7-B3 variant A330_07I/GpL16-k0 (antibody, human IgG1, kappa, He Ab; copies: 1 + 1 + 2) heavy 1: not shown heavy 2: not shown light: DIVMTQSPLSLPVTPGEPASISCQASESLVHSNRNTYLHWYLQKPGQSPQLLIYKVSNRFSGVPDRFSGSGSGTDFTLKISRVEAEDVGVYYCSQNTHVPPTFGQGTKVEIERTVAAPSVFIFPPSDEQLKSGTASVVCLLNNFYPREAKVQWKVDNALQSGNSQESVTEQDSKDSTYSLSSTLTLSKADYEKHKVYACEVTHQGLSSPVTKSFNRGEC",101%
4,"GpH7-A5/GpH7-B3 variant A330_01G/GpL16-k0 (antibody, human IgG1, kappa, He Ab; copies: 1 + 1 + 2) heavy 1: not shown heavy 2: not shown light: DIVMTQSPLSLPVTPGEPASISCQASESLVHSNRNTYLHWYLQKPGQSPQLLIYKVSNRFSGVPDRFSGSGSGTDFTLKISRVEAEDVGVYYCSQNTHVPPTFGQGTKVEIERTVAAPSVFIFPPSDEQLKSGTASVVCLLNNFYPREAKVQWKVDNALQSGNSQESVTEQDSKDSTYSLSSTLTLSKADYEKHKVYACEVTHQGLSSPVTKSFNRGEC",87.3%
5,"GpH7-A5/GpH7-B3 variant A330_04F/GpL16-k0 (antibody, human IgG1, kappa, He Ab; copies: 1 + 1 + 2) heavy 1: not shown heavy 2: not shown light: DIVMTQSPLSLPVTPGEPASISCQASESLVHSNRNTYLHWYLQKPGQSPQLLIYKVSNRFSGVPDRFSGSGSGTDFTLKISRVEAEDVGVYYCSQNTHVPPTFGQGTKVEIERTVAAPSVFIFPPSDEQLKSGTASVVCLLNNFYPREAKVQWKVDNALQSGNSQESVTEQDSKDSTYSLSSTLTLSKADYEKHKVYACEVTHQGLSSPVTKSFNRGEC",144%
6,"GpH7-A5/GpH7-B3 variant A327_18N/GpL16-k0 (antibody, human IgG1, kappa, He Ab; copies: 1 + 1 + 2) heavy 1: not shown heavy 2: not shown light: DIVMTQSPLSLPVTPGEPASISCQASESLVHSNRNTYLHWYLQKPGQSPQLLIYKVSNRFSGVPDRFSGSGSGTDFTLKISRVEAEDVGVYYCSQNTHVPPTFGQGTKVEIERTVAAPSVFIFPPSDEQLKSGTASVVCLLNNFYPREAKVQWKVDNALQSGNSQESVTEQDSKDSTYSLSSTLTLSKADYEKHKVYACEVTHQGLSSPVTKSFNRGEC",62.8%
7,"GpH7-A5/GpH7-B3 variant A327_10E/GpL16-k0 (antibody, human IgG1, kappa, He Ab; copies: 1 + 1 + 2) heavy 1: not shown heavy 2: not shown light: DIVMTQSPLSLPVTPGEPASISCQASESLVHSNRNTYLHWYLQKPGQSPQLLIYKVSNRFSGVPDRFSGSGSGTDFTLKISRVEAEDVGVYYCSQNTHVPPTFGQGTKVEIERTVAAPSVFIFPPSDEQLKSGTASVVCLLNNFYPREAKVQWKVDNALQSGNSQESVTEQDSKDSTYSLSSTLTLSKADYEKHKVYACEVTHQGLSSPVTKSFNRGEC",70.5%
8,"GpH7-A5/GpH7-B3 variant A327_06M/GpL16-k0 (antibody, human IgG1, kappa, He Ab; copies: 1 + 1 + 2) heavy 1: not shown heavy 2: not shown light: DIVMTQSPLSLPVTPGEPASISCQASESLVHSNRNTYLHWYLQKPGQSPQLLIYKVSNRFSGVPDRFSGSGSGTDFTLKISRVEAEDVGVYYCSQNTHVPPTFGQGTKVEIERTVAAPSVFIFPPSDEQLKSGTASVVCLLNNFYPREAKVQWKVDNALQSGNSQESVTEQDSKDSTYSLSSTLTLSKADYEKHKVYACEVTHQGLSSPVTKSFNRGEC",54%
9,"GpH7-A5/GpH7-B3 variant A327_09D/GpL16-k0 (antibody, human IgG1, kappa, He Ab; copies: 1 + 1 + 2) heavy 1: not shown heavy 2: not shown light: DIVMTQSPLSLPVTPGEPASISCQASESLVHSNRNTYLHWYLQKPGQSPQLLIYKVSNRFSGVPDRFSGSGSGTDFTLKISRVEAEDVGVYYCSQNTHVPPTFGQGTKVEIERTVAAPSVFIFPPSDEQLKSGTASVVCLLNNFYPREAKVQWKVDNALQSGNSQESVTEQDSKDSTYSLSSTLTLSKADYEKHKVYACEVTHQGLSSPVTKSFNRGEC",86%
10,"GpH7-A5/GpH7-B3 variant A330_06M/GpL16-k0 (antibody, human IgG1, kappa, He Ab; copies: 1 + 1 + 2) heavy 1: not shown heavy 2: not shown light: DIVMTQSPLSLPVTPGEPASISCQASESLVHSNRNTYLHWYLQKPGQSPQLLIYKVSNRFSGVPDRFSGSGSGTDFTLKISRVEAEDVGVYYCSQNTHVPPTFGQGTKVEIERTVAAPSVFIFPPSDEQLKSGTASVVCLLNNFYPREAKVQWKVDNALQSGNSQESVTEQDSKDSTYSLSSTLTLSKADYEKHKVYACEVTHQGLSSPVTKSFNRGEC",139%
11,"GpH7-A5/GpH7-B3 variant A327_19Q/GpL16-k0 (antibody, human IgG1, kappa, He Ab; copies: 1 + 1 + 2) heavy 1: not shown heavy 2: not shown light: DIVMTQSPLSLPVTPGEPASISCQASESLVHSNRNTYLHWYLQKPGQSPQLLIYKVSNRFSGVPDRFSGSGSGTDFTLKISRVEAEDVGVYYCSQNTHVPPTFGQGTKVEIERTVAAPSVFIFPPSDEQLKSGTASVVCLLNNFYPREAKVQWKVDNALQSGNSQESVTEQDSKDSTYSLSSTLTLSKADYEKHKVYACEVTHQGLSSPVTKSFNRGEC",54%
12,"GpH7-A5/GpH7-B3 variant A330_03V/GpL16-k0 (antibody, human IgG1, kappa, He Ab; copies: 1 + 1 + 2) heavy 1: not shown heavy 2: not shown light: DIVMTQSPLSLPVTPGEPASISCQASESLVHSNRNTYLHWYLQKPGQSPQLLIYKVSNRFSGVPDRFSGSGSGTDFTLKISRVEAEDVGVYYCSQNTHVPPTFGQGTKVEIERTVAAPSVFIFPPSDEQLKSGTASVVCLLNNFYPREAKVQWKVDNALQSGNSQESVTEQDSKDSTYSLSSTLTLSKADYEKHKVYACEVTHQGLSSPVTKSFNRGEC",98.8%
13,"GpH7-A5/GpH7-B3 variant A327_05P/GpL16-k0 (antibody, human IgG1, kappa, He Ab; copies: 1 + 1 + 2) heavy 1: not shown heavy 2: not shown light: DIVMTQSPLSLPVTPGEPASISCQASESLVHSNRNTYLHWYLQKPGQSPQLLIYKVSNRFSGVPDRFSGSGSGTDFTLKISRVEAEDVGVYYCSQNTHVPPTFGQGTKVEIERTVAAPSVFIFPPSDEQLKSGTASVVCLLNNFYPREAKVQWKVDNALQSGNSQESVTEQDSKDSTYSLSSTLTLSKADYEKHKVYACEVTHQGLSSPVTKSFNRGEC",61.9%
14,"GpH7-A5/GpH7-B3 variant A327_20W/GpL16-k0 (antibody, human IgG1, kappa, He Ab; copies: 1 + 1 + 2) heavy 1: not shown heavy 2: not shown light: DIVMTQSPLSLPVTPGEPASISCQASESLVHSNRNTYLHWYLQKPGQSPQLLIYKVSNRFSGVPDRFSGSGSGTDFTLKISRVEAEDVGVYYCSQNTHVPPTFGQGTKVEIERTVAAPSVFIFPPSDEQLKSGTASVVCLLNNFYPREAKVQWKVDNALQSGNSQESVTEQDSKDSTYSLSSTLTLSKADYEKHKVYACEVTHQGLSSPVTKSFNRGEC",52.6%

# Molecular target: T2, FcγRIIIa (human, UniProt P08637 17-208)
# T2 construct: extracellular domain; also called 3a; FcγRIIIa extracellular domain
# Assay: SPR (Biacore);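 also: antibody variants captured on an SPR sensor chip, with FcγRIIIa passed over as analyte in HBS-EP+ buffer at 25 °C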
# T2 sequence (P08637 other isoform, or with tags, fused parts or gaps): as the sequence (P08637 other isoform, or with tags, fused parts or gaps) above
row,Binder,He/Con 3a
1,"GpH7-A5/GpH7-B3 variant Y300_19Q/GpL16-k0 (antibody, human IgG1, kappa, copies: 1 + 1 + 2) heavy 1: not shown heavy 2: not shown light: DIVMTQSPLSLPVTPGEPASISCQASESLVHSNRNTYLHWYLQKPGQSPQLLIYKVSNRFSGVPDRFSGSGSGTDFTLKISRVEAEDVGVYYCSQNTHVPPTFGQGTKVEIERTVAAPSVFIFPPSDEQLKSGTASVVCLLNNFYPREAKVQWKVDNALQSGNSQESVTEQDSKDSTYSLSSTLTLSKADYEKHKVYACEVTHQGLSSPVTKSFNRGEC",105 % of GpH7-A5/GpH7-B3/GpL16-k0
2,"GpH7-A5/GpH7-B3 variant Y300_20W/GpL16-k0 (antibody, human IgG1, kappa, copies: 1 + 1 + 2) heavy 1: not shown heavy 2: not shown light: DIVMTQSPLSLPVTPGEPASISCQASESLVHSNRNTYLHWYLQKPGQSPQLLIYKVSNRFSGVPDRFSGSGSGTDFTLKISRVEAEDVGVYYCSQNTHVPPTFGQGTKVEIERTVAAPSVFIFPPSDEQLKSGTASVVCLLNNFYPREAKVQWKVDNALQSGNSQESVTEQDSKDSTYSLSSTLTLSKADYEKHKVYACEVTHQGLSSPVTKSFNRGEC",101 % of GpH7-A5/GpH7-B3/GpL16-k0
